From paper PMC12657241

Assays:
[1] = biological target: wild-type OppA, periplasmic binding protein of the oligopeptide permease (Opp) ABC transporter (E. coli) (UniProt P23843); experiment: MST
[2] = biological target: OppA-iso, evolved OppA variant (E. coli) (UniProt P23843); experiment: MST

Kd [1] [µM] | Kd [2] [µM] | Substance
50 | 37 | G-SisoK, isopeptide-linked tripeptide
71 | 275 | linear GSK tripeptide
300 | 300 | SisoK, isopeptide-linked dipeptide (serine on the ε-amine of lysine)
